# Results from paper doi:10.1101/2025.06.10.658772 (bioRxiv, 2025).
# T1: C-terminally large NanoLuc fragment (LgBiT)-fused Dr-GPR25 (zebrafish (Danio rerio), UniProt A0AC58GT18 1-377)
# T1 sequence: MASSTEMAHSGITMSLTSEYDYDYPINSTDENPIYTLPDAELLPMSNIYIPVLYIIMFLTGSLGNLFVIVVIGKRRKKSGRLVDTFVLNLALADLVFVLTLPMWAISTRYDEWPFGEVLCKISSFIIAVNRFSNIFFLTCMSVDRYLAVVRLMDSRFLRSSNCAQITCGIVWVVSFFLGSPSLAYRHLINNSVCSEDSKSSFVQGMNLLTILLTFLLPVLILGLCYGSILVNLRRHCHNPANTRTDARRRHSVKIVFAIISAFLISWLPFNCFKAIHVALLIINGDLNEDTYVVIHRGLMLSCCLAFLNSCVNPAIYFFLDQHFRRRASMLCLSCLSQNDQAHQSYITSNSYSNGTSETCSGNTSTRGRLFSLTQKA
# T2: C-terminally LgBiT-fused Lc-GPR25 (coelacanth (Latimeria chalumnae), UniProt H3AQL3 1-365)
# T2 sequence: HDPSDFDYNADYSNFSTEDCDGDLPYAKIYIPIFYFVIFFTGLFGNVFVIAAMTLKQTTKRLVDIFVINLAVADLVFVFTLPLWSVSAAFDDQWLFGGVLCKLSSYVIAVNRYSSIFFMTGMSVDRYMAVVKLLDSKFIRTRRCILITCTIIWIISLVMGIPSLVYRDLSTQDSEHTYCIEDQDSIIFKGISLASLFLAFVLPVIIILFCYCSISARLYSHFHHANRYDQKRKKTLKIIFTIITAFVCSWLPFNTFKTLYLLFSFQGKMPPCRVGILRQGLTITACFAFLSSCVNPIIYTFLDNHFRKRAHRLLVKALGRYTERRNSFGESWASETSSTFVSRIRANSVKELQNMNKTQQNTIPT
# B1: N-terminally 6×His-tagged wild-type (WT) human CXCL17 (ligand)
# chain: SSLNPGVARGHRDRGQASRRWLQEGGQECECKDWFLRAPRRKFMTVSGLPKKQCPCDHFKGNVKKTRHQRHHRKPNKHSRACQQFLKQCQLRSFALPL
# Columns and labels:
# [1] = molecular target: T1, C-terminally large NanoLuc fragment …; experiment: cell-based or functional assay
# [2] = molecular target: T2, C-terminally LgBiT-fused Lc-GPR25; experiment: cell-based or functional assay
binder,measurement,setting,value
B1,"NanoBiT-based β-arrestin recruitment (SmBiT-ARRB2), EC50 of the dose curve",[1],~0.06 µM
same,"NanoBiT-based β-arrestin recruitment (SmBiT-ARRB2), maximal effect",[1],~5 fold over background
same,"NanoBiT-based β-arrestin recruitment (SmBiT-ARRB2), EC50 of the dose curve",[2],~0.3 µM
same,"NanoBiT-based β-arrestin recruitment (SmBiT-ARRB2), maximal effect",[2],~3 fold over background
